In paper PMC10786891, “Massively parallel profiling of RNA-targeting CRISPR-Cas13d” one finds Kd data, which are given here for 31 molecules.

Substitutions are numbered along the chain they refer to. In names and notes the source's numbering stands.

First the molecules themselves.
B1: target 1 C6G,C21A (mixed)
RNA 1: CACCCGUGCAAAAAUGCAGGGGUCUAAAACUGAGCGGAUAACCUCUCUAUGG
RNA 2: GGGAAUGGAUCCACAUCUACGAAUUCGUACAAUAGAGAGGUUAUCGGCUCACCGAGAUCGGAAGAGCACACGU
B2: target 1 C6U,A9C (mixed)
RNA 1: B1 RNA 1
RNA 2: B1 RNA 2 with A31C, A43C, G46U
B3: target 1 insC 3' of 17,insC 3' of 5 (mixed)
RNA 1: B1 RNA 1
RNA 2: GGGAAUGGAUCCACAUCUACGAAUUCGUACCAUAGCAGAGGUUAUCCGCCUCACCGAGAUCGGAAGAGCACACGU
B4: target 1 U3A,C21U (mixed)
RNA 1: B1 RNA 1
RNA 2: B1 RNA 2 with A31U, G46C, U49A
B5: target 1 insU 3' of 18,insC 3' of 12 (mixed)
RNA 1: B1 RNA 1
RNA 2: B3 RNA 2 with G35U, C36G, U42C, A44U, U45A, C46U, G48C, C49G
B6: target 1 U10C,C21U (mixed)
RNA 1: B1 RNA 1
RNA 2: B1 RNA 2 with A31U, U42C, G46C
B7: target 1 insG 3' of 7,insG 3' of 3 (mixed)
RNA 1: B1 RNA 1
RNA 2: GGGAAUGGAUCCACAUCUACGAAUUCGUACCAUAGAGAGGUUAUCGCGCUGCACCGAGAUCGGAAGAGCACACGU
B8: target 1 insG 3' of 14,insC 3' of 8 (mixed)
RNA 1: B1 RNA 1
RNA 2: B3 RNA 2 with C36A, A37G, G38A, A39G, G48C, C49G
B9: target 1 del7,del19 (mixed)
RNA 1: B1 RNA 1
RNA 2: GGGAAUGGAUCCACAUCUACGAAUUCGUACCAAGAGAGGUUAUCGCUCACCGAGAUCGGAAGAGCACACGU
B10: target 1 insC 3' of 22,insC 3' of 3 (mixed)
RNA 1: B1 RNA 1
RNA 2: B3 RNA 2 with A32C, U33A, A34U, G35A, C36G, C50U, U51C
B11: target 1 insC 3' of 13,insU 3' of 9 (mixed)
RNA 1: B1 RNA 1
RNA 2: B3 RNA 2 with C36A, A37G, G38A, A39G, G40C, C46U, G48C, C49G
B12: target 1 insC 3' of 22,insG 3' of 9 (mixed)
RNA 1: B1 RNA 1
RNA 2: B3 RNA 2 with A32C, U33A, A34U, G35A, C36G, U45G, C46U, G48C, C49G
B13: target 1 insA 3' of 17,insA 3' of 12 (mixed)
RNA 1: B1 RNA 1
RNA 2: B3 RNA 2 with C36A, U42A, A44U, U45A, C46U, G48C, C49G
B14: target 1 insC 3' of 19,insC 3' of 8 (mixed)
RNA 1: B1 RNA 1
RNA 2: B3 RNA 2 with A34C, G35A, C36G, G48C, C49G
B15: target 1 C2G,U19G (mixed)
RNA 1: B1 RNA 1
RNA 2: B1 RNA 2 with A31C, U33G, G46C, C50G
B16: target 1 insA 3' of 19,insA 3' of 5 (mixed)
RNA 1: B1 RNA 1
RNA 2: B3 RNA 2 with G35A, C36G, C49A
B17: target 1 insA 3' of 15,insA 3' of 11 (mixed)
RNA 1: B1 RNA 1
RNA 2: B7 RNA 2 with G39A, U41G, C45A, G46U, G48C, C49G, U50C, G51U
B18: target 1 A14G,U19G (mixed)
RNA 1: B1 RNA 1
RNA 2: B1 RNA 2 with A31C, U33G, A38G, G46C
B19: target 1 insG 3' of 22,insC 3' of 8 (mixed)
RNA 1: B1 RNA 1
RNA 2: B3 RNA 2 with C31G, A32C, U33A, A34U, G35A, C36G, G48C, C49G
B20: target 1 G5U,A16U (mixed)
RNA 1: B1 RNA 1
RNA 2: B1 RNA 2 with A31C, A36U, G46C, G47U
B21: target 1 del17,del18 (mixed)
RNA 1: B1 RNA 1
RNA 2: GGGAAUGGAUCCACAUCUACGAAUUCGUACCAUAGAGGUUAUCCGCUCACCGAGAUCGGAAGAGCACACGU
B22: target 1 U3A,U10C (mixed)
RNA 1: B1 RNA 1
RNA 2: B1 RNA 2 with A31C, U42C, G46C, U49A
B23: target 1 insA 3' of 12,insA 3' of 8 (mixed)
RNA 1: B1 RNA 1
RNA 2: B3 RNA 2 with C36A, A37G, G38A, A39G, G41A, C46A, G48C, C49G
B24: target 1 insU 3' of 20,insC 3' of 8 (mixed)
RNA 1: B1 RNA 1
RNA 2: B3 RNA 2 with A34U, G35A, C36G, G48C, C49G
B25: target 1 U8G,U11G (mixed)
RNA 1: B1 RNA 1
RNA 2: B1 RNA 2 with A31C, U41G, U44G, G46C
B26: target 1 insG 3' of 20,insA 3' of 13 (mixed)
RNA 1: B1 RNA 1
RNA 2: GGGAAUGGAUCCACAUCUACGAAUUCGUACCAGUAGAGAGAGUUAUCCGCUCACCGAGAUCGGAAGAGCACACGU
B27: target 1 insU 3' of 20,insG 3' of 4 (mixed)
RNA 1: B1 RNA 1
RNA 2: B3 RNA 2 with A34U, G35A, C36G, C50G
B28: target 1 insU 3' of 22,insA 3' of 11 (mixed)
RNA 1: B1 RNA 1
RNA 2: B26 RNA 2 with C31U, A32C, G33A, A41G, G42U, U43A
B29: target 1 G5C,C6U (mixed)
RNA 1: B1 RNA 1
RNA 2: B1 RNA 2 with A31C, G46U, G47C
B30: target 1 insC 3' of 11,insG 3' of 4 (mixed)
RNA 1: B1 RNA 1
RNA 2: B7 RNA 2 with U42C, A43U, U44A, C45U, G46C, U50G, G51U
B31: target 1 insC 3' of 15,insG 3' of 14 (mixed)
RNA 1: B1 RNA 1
RNA 2: B26 RNA 2 with G33U, U34A, A35G, G36A, A37G, G38C, A41G

The target of this series is T1, EsCas13d, nuclease-dead (Eubacterium siraeum, UniProt B0MS50, R295A;H300A;R849A;H854A).
T1 sequence: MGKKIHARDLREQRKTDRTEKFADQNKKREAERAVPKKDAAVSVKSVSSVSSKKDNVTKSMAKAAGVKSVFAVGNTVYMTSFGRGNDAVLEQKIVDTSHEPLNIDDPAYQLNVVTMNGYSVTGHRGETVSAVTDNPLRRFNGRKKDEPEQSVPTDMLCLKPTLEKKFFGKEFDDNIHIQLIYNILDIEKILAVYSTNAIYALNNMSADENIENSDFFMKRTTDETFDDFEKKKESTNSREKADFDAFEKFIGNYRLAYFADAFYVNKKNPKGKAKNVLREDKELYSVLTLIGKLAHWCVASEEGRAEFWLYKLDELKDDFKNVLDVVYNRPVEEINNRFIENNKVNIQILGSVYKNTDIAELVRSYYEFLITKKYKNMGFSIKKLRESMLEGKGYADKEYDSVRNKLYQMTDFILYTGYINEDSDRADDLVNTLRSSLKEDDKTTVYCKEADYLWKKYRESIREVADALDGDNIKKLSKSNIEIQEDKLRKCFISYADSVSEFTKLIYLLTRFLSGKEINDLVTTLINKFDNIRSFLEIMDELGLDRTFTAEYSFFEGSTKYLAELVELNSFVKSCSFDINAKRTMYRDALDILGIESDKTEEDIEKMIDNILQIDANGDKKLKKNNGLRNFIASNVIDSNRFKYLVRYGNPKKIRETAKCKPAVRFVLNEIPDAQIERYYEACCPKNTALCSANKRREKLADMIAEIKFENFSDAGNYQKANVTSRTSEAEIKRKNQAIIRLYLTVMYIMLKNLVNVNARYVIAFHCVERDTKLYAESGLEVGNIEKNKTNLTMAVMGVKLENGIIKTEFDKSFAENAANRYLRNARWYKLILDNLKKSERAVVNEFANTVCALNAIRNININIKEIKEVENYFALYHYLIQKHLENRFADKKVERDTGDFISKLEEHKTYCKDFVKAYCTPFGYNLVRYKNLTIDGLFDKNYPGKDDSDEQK
The series can be described thus: crRNA (strand 1, pre-loaded); Mg2+; 40 mM Tris-HCl pH 7.5, 150 mM NaCl, 6 mM MgCl2, 1 mM DTT, 0.1% Tween-20, 0.2 mg/ml BSA; 25 C; 10 min per concentration, then washed. Particulars: tags: His6-TwinStrep-SUMO cleaved; N-terminal SNAP kept (SNAP-Surface 488); label: 3' end held by stalled T7 RNA polymerase.
In general, Kd refers to the constant that tells how readily two partners part at equilibrium. Consider B1, for which the Kd came out at 24.3 ± 1.5 nM.
The figure for B2 is 33.1 ± 1.9 nM; for B3 it is 61 ± 6 nM; for B4 it is 19 ± 6 nM.
In turn, B5 came in with a Kd of approximately 90 nM.
Consider B6, for which the affinity, expressed as Kd, was 8.5 ± 0.4 nM.
In turn, B7 registered a Kd of 5.41 ± 0.21 nM.
B8 displayed a Kd of 41 ± 5 nM.
For the molecule B9, the equilibrium dissociation constant (Kd) was 52 ± 6 nM.
B10 came in with a Kd of 15.6 ± 1.3 nM.
The molecule B11 returned a Kd of 10 ± 0.5 nM.
With B12, the Kd came out at 33 ± 16 nM.
In the case of B13 it was 42 ± 8 nM.
B14 had a Kd of 52 ± 5 nM.
B15 gave a Kd of 38 ± 4 nM.
The figure for B16 is 16 ± 1.2 nM.
In the case of B17 it was 14.8 ± 0.8 nM.
B18 had a Kd of approximately 80 nM.
The figure for B19 is approximately 90 nM; for B20 it is 66 ± 10 nM; for B21 it is 13.9 ± 1.6 nM.
The figure for B22 is 19.7 ± 2 nM; for B23 it is 37 ± 3.3 nM.
The figure for B24 is 19.1 ± 1 nM.
In the case of B25, binding was put at a Kd of 18.9 ± 0.7 nM.
In the case of B26 it was 32 ± 8 nM; in that of B27, 10.4 ± 0.7 nM; in that of B28, 66 ± 15 nM.
The molecule B29 came in with a Kd of 11.6 ± 0.4 nM.
For B30, the Kd is 22.7 ± 1.2 nM.
On to B31, for which the Kd was 22.7 ± 1.8 nM.
